# In patent US8512991B2, “Beta 1,4-galactosyltransferases with altered donor and acceptor specificities, compositions and methods of use” (The United States of America, as represented by the …, priority 2007, dated 2013):
# Where two headings read alike, the source gives them in different places.
# What was measured:
# [1] = Transfer of GalNAc or 2-keto-galactose to heptasaccharide tetrapeptide, MALDI mass spectra (FIG. 1); type: biochemical
# Procedure: Major peaks are annotated with the carbohydrate structure shown in the symbols for monosaccharides, according to the nomenclature adopted by the consortium for functional glycomics, (on the world wide web at functionalglycomics.org/static/consortium/). GlcNAc (squares), mannose (spheres).
# The experiments shown in FIG. 1 were performed with the double mutant, b4Gal-T1_M340H_Y285L, which was constructed from the single mutants, b4Gal-T1_M340H and b4Gal-T1_Y285L. The b4Gal-T1-M340H single mutant requires Mg2+ for the transfer reaction, while the b4Gal-T1 Y285L single mutant requires Mn2+ for the transfer reaction. In FIGS. 1, (A), (B) and (C) show the MALDI mass spectra of glycans after the transfer of GalNAc (shown in B) or 2-keto-galactose (shown in C) to the sugar acceptor, heptasaccharide tetrapeptide (A), Arg-[GlcNAcβ1,2-Manα-1,6-(GlcNAcβ1,2-Manα1,3)-Manβ1,4-GlcNAcβ1,4-GlcNAcβ]-Asn-Glu-Gly, by the double mutant enzyme, b4Gal-T1M340H_Y285L. In FIG. 1, major peaks are annotated with the carbohydrate structure shown in the symbols for monosaccharides, according to the nomenclature adopted by the consortium for functional glycomics (publicly available on the world wide web at functional glycomics.org/static/consortium/).
# [2] = Gal-T and GalNAc-T enzyme assay, specific activities of the catalytic domain (FIG. 2); type: biochemical; conditions: in the presence of magnesium; saturating substrates, 500 μM UDP-galactose or UDP-GalNAc, β-benzyl-GlcNAc 25 mM
# Procedure: FIG. 2 is a graph showing specific activities of the catalytic domain of the human beta 4Gal-T1-M340H-Y285L. Reactions were performed under saturating conditions of all substrates. In these reactions the concentrations for the donors UDP-galactose or UDP-GalNAc was 500 μM and the acceptor β-benzyl-GlcNAc was at 25 mM.
# The reactions were performed under saturating conditions of all substrates. […] This is in contrast to the wild type, which is not active (not able to transfer sugar) in the presence of magnesium.
# Gal-T and GalNAc T enzyme assays are easily performed according to methods described in the art, for example US Published Application 20060084162. Protein concentrations are measured using the Bio-Rad protein assay kit, based on the method of Bradford and further verified on SDS gel. An in vitro assay procedure for the Gal-T1 has been reported previously (Ramakrishnan et al., J. Biol. Chem., 270, […] (2001)). The activities were measured using UDP-Gal or UDP-GalNAc as sugar nucleotide donors, and GlcNAc and Glc as the acceptor sugars. […] The column was washed successfully with 300, 400, and 500 µl of water, and the column flow-through was diluted with Biosafe scintillation fluid; radioactivity was measured with a Beckman counter. […]
# [3] = Ramakrishnan et al. 2002, 2004, cited from earlier work
Molecule,"transfer of GalNAc or a modified sugar (2-keto-galactose) to the sugar acceptor ([1]; in the presence of Mg2+, acceptor heptasaccharide tetrapeptide)",activity (able to transfer sugar) of the catalytic domain [2],metal ion required for the transfer reaction (GalNAc or a modified sugar) [1],beta 4GalNAc-T activity compared with beta 4Gal-T activity ([3]; listed as beta 4Gal-T1-Y289L),beta 4GalNAc-T activity compared with beta 4Gal-T activity ([3]; listed as beta4Gal-T1-Y289L)
"b4Gal-T1-M340H-Y285L: double mutant human beta 1,4-galactosyltransferase I, Tyr285Leu and Met340His, transfers GalNAc or modified galactose with magnesium (protein, UniProt P15291 1-398, looked up, variant M340H Y285L) MRLREPLLSGSAAMPGASLQRACRLLVAVCALHLGVTLVYYLAGRDLSRLPQLVGVSTPLQGGSNSAAAIGQSSGELRTGGARPPPPLGASSQPRPGGDSSPVVDSGPGPASNLTSVPVPHTTALSLPACPEESPLLVGPMLIEFNMPVDLELVAKQNPNVKMGGRYAPRDCVSPHKVAIIIPFRNRQEHLKYWLYYLHPVLQRQQLDYGIYVINQAGDTIFNRAKLLNVGFQEALKDYDYTCFVFSDVDLIPMNDHNAYRCFSQPRHISVAMDKFGFSLPYVQLFGGVSALSKQQFLTINGFPNNYWGWGGEDDDIFNRLVFRGMSISRPNAVVGRCRHIRHSRDKKNEPNPQRFDRIAHTKETMLSDGLNSLTYQVLDVQRYPLYTQITVDIGTPS",transfer of GalNAc or a modified sugar,is active,–,–,–
"b4Gal-T1 Y285L: single mutant human beta4Gal-T1, Tyr285 to Leu, from which the double mutant was constructed (protein, UniProt P15291 1-398, looked up, variant Y285L) MRLREPLLSGSAAMPGASLQRACRLLVAVCALHLGVTLVYYLAGRDLSRLPQLVGVSTPLQGGSNSAAAIGQSSGELRTGGARPPPPLGASSQPRPGGDSSPVVDSGPGPASNLTSVPVPHTTALSLPACPEESPLLVGPMLIEFNMPVDLELVAKQNPNVKMGGRYAPRDCVSPHKVAIIIPFRNRQEHLKYWLYYLHPVLQRQQLDYGIYVINQAGDTIFNRAKLLNVGFQEALKDYDYTCFVFSDVDLIPMNDHNAYRCFSQPRHISVAMDKFGFSLPYVQLFGGVSALSKQQFLTINGFPNNYWGWGGEDDDIFNRLVFRGMSISRPNAVVGRCRMIRHSRDKKNEPNPQRFDRIAHTKETMLSDGLNSLTYQVLDVQRYPLYTQITVDIGTPS",–,–,requires Mn2+,–,–
"b4Gal-T1-M340H: single mutant human beta4Gal-T1, Met340 to His, from which the double mutant was constructed (protein, UniProt P15291 1-398, looked up, variant M340H) MRLREPLLSGSAAMPGASLQRACRLLVAVCALHLGVTLVYYLAGRDLSRLPQLVGVSTPLQGGSNSAAAIGQSSGELRTGGARPPPPLGASSQPRPGGDSSPVVDSGPGPASNLTSVPVPHTTALSLPACPEESPLLVGPMLIEFNMPVDLELVAKQNPNVKMGGRYAPRDCVSPHKVAIIIPFRNRQEHLKYWLYYLHPVLQRQQLDYGIYVINQAGDTIFNRAKLLNVGFQEALKDYDYTCFVFSDVDLIPMNDHNAYRCFSQPRHISVAMDKFGFSLPYVQYFGGVSALSKQQFLTINGFPNNYWGWGGEDDDIFNRLVFRGMSISRPNAVVGRCRHIRHSRDKKNEPNPQRFDRIAHTKETMLSDGLNSLTYQVLDVQRYPLYTQITVDIGTPS",–,–,requires Mg2+,–,–
"b4Gal-T1Y289L: single mutant beta4Gal-T1, Tyr289 to Leu (bovine numbering), enlarged binding pocket with GalNAc-T activity (protein, UniProt P08037 1-402, looked up, variant Y289L) MKFREPLLGGSAAMPGASLQRACRLLVAVCALHLGVTLVYYLAGRDLRRLPQLVGVHPPLQGSSHGAAAIGQPSGELRLRGVAPPPPLQNSSKPRSRAPSNLDAYSHPGPGPGPGSNLTSAPVPSTTTRSLTACPEESPLLVGPMLIEFNIPVDLKLVEQQNPKVKLGGRYTPMDCISPHKVAIIIPFRNRQEHLKYWLYYLHPILQRQQLDYGIYVINQAGESMFNRAKLLNVGFKEALKDYDYNCFVFSDVDLIPMNDHNTYRCFSQPRHISVAMDKFGFSLPYVQLFGGVSALSKQQFLSINGFPNNYWGWGGEDDDIYNRLAFRGMSVSRPNAVIGKCRMIRHSRDKKNEPNPQRFDRIAHTKETMLSDGLNSLTYMVLEVQRYPLYTKITVDIGTPS",–,–,require the presence of Mn2+,exhibits both beta 4Gal-T and beta 4GalNAc-T activities,"as efficient as its beta-1,4-galactosyltransferase (beta 4Gal-T) activity"
